From patent US20190016789A1 (Janssen / Centocor, published 2019)

T1: Tencon25
T1 construct: Artificial FN3 domain (centyrin scaffold) with no target specificity; It was the immunogen; also called Tencon-T25
T1 chain: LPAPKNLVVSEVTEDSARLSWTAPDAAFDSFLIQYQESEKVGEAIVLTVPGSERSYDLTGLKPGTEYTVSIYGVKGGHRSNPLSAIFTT

T2: FN3 domain A3 specific for human cMET
T2 construct: it carries a C-terminal His tag
T2 chain: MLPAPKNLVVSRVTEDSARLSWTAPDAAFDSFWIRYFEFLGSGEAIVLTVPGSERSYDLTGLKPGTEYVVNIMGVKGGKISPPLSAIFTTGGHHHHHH

T3: 83v2-ABD specific for human EGFR with an albumin binding domain
T3 chain: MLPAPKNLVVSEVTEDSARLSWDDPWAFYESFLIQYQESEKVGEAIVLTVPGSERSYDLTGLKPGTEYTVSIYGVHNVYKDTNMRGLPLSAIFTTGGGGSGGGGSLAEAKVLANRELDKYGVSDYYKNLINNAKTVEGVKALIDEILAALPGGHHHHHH

B1: AS7B90 (antibody, rat IgG1)
heavy: QSLEESGGRLVTPGTPLTLTCTVSGIDLSTSVMGWVRQAPGKGLESIGFIYTNVNTYYASWAKGRFTISRTSTTVDLKITSPTTGDTATYFCARAVYAGAMDLWGQGTLVTVSSAETTAPSVYPLAPGTALKSNSMVTLGCLVKGYFPEPVTVTWNSGALSSGVHTFPAVLQSGLYTLTSSVTVPSSTWPSQTVTCNVAHPASSTKVDKKIVPRNCGGDCKPCICTGSEVSSVFIFPPKPKDVLTITLTPKVTCVVVDISQDDPEVHFSWFVDDVEVHTAQTRPPEEQFNSTFRSVSELPILHQDWLNGRTFRCKVTSAAFPSPIEKTISKPEGRTQVPHVYTMSPTKEEMTQNEVSITCMVKGFYPPDIYVEWQMNGQPQENYKNTPPTMDTDGSYFLYSKLNVKKEKWQQGNTFTCSVLHEGLHNHHTEKSLSHSPGK
light: DVVMTQTPASVSGPVGGTVTIKCQASERIYSNLAWYQQKPGQPPKLLIYKASTLASGVSSRFKGSGSGTEFTLTIRDLECADAATYSCQYTSYGSGYVGTFGGGTEVVVEGRADAAPTVSIFPPSSEQLASGGASVVCFINKFYPKDISVKWKIDGSERQNDVLNSVTDQDSKDSTYSMSSTLTLTKADYERHNLYTCEVVHKTSASPVVKSFNRNEC
B2: AS7B91 scFv L-H CAR (scFv)
chain: DVVMTQTPASVSGPVGGTVTIKCQASERIYSNLAWYQQKPGQPPKLLIYKASTLASGVSSRFKGSGSGTEFTLTIRDLECADAATYSCQYTSYGSGYVGTFGGGTEVVVEGGGGGSGGGGSGGGGSGGGGSLEESGGRLVTPGTPLTLTCTVSGIDLSTSVMGWVRQAPGKGLESIGFIYTNVNTYYASWAKGRFTISRTSTTVDLKITSPTTGDTATYFCARAVYAGAMDLWGQGTLVTVSSTTTPAPRPPTPAPTIASQPLSLRPEACRPAAGGAVHTRGLDFACDIYIWAPLAGTCGVLLLSLVITLYCKRGRKKLLYIFKQPFMRPVQTTQEEDGCSCRFPEEEEGGCELRVKFSRSADAPAYKQGQNQLYNELNLGRREEYDVLDKRRGRDPEMGGKPRRKNPQEGLYNELQKDKMAEAYSEIGMKGERRRGKGHDGLYQGLSTATKDTYDALHMQALPPR
notes: Chimeric antigen receptor on mRNA-electroporated human pan T cells; also called BAR-T variant 1; AS7B91 L-H CAR ECD
B3: AS7B16 scFv CAR, H-L orientation (scFv)
chain: QVTLKESGPGILQPSQTLSLTCSFSGFSLNTSGTGVGWIRQPSGKGLEWLAHIWWDDDKGYNPALKSRLTISKNTSSNLVFLKIASVDTADTATYYCVRIKGRMDYWGQGTSVTVSSGGGGSGGGGSGGGGSGGGGSNIMMTQSPSSLAVSAGEKVTMNCKSSQSVLFGSKQKNYLAWYQQKPGQSPKLLIYWASTRESGVPDRFTGSGSGTDFILTISNVQAEDLAVYYCHQYLSLFTFGSGTKLEIKTTTPAPRPPTPAPTIASQPLSLRPEACRPAAGGAVHTRGLDFACDIYIWAPLAGTCGVLLLSLVITLYCKRGRKKLLYIFKQPFMRPVQTTQEEDGCSCRFPEEEEGGCELRVKFSRSADAPAYKQGQNQLYNELNLGRREEYDVLDKRRGRDPEMGGKPRRKNPQEGLYNELQKDKMAEAYSEIGMKGERRRGKGHDGLYQGLSTATKDTYDALHMQALPPR
notes: Chimeric antigen receptor on mRNA-electroporated human pan T cells; also called AS7B16 H2L; AS7B16 H-L CAR ECD
B4: AS7B91 scFv H-L CAR (scFv)
chain: QSLEESGGRLVTPGTPLTLTCTVSGIDLSTSVMGWVRQAPGKGLESIGFIYTNVNTYYASWAKGRFTISRTSTTVDLKITSPTTGDTATYFCARAVYAGAMDLWGQGTLVTVSSGGGGSGGGGSGGGGSGGGGSDVVMTQTPASVSGPVGGTVTIKCQASERIYSNLAWYQQKPGQPPKLLIYKASTLASGVSSRFKGSGSGTEFTLTIRDLECADAATYSCQYTSYGSGYVGTFGGGTEVVVEGTTTPAPRPPTPAPTIASQPLSLRPEACRPAAGGAVHTRGLDFACDIYIWAPLAGTCGVLLLSLVITLYCKRGRKKLLYIFKQPFMRPVQTTQEEDGCSCRFPEEEEGGCELRVKFSRSADAPAYKQGQNQLYNELNLGRREEYDVLDKRRGRDPEMGGKPRRKNPQEGLYNELQKDKMAEAYSEIGMKGERRRGKGHDGLYQGLSTATKDTYDALHMQALPPR
notes: Chimeric antigen receptor on mRNA-electroporated human pan T cells; also called BAR-T variant 2; AS7B91 H-L CAR ECD
B5: AS7B91 (antibody, mouse IgG2a, kappa)
heavy: QSLEESGGRLVTPGTPLTLTCTVSGIDLSTSVMGWVRQAPGKGLESIGFIYTNVNTYYASWAKGRFTISRTSTTVDLKITSPTTGDTATYFCARAVYAGAMDLWGQGTLVTVSSAKTTAPSVYPLAPVCGDTTGSSVTLGCLVKGYFPEPVTLTWNSGSLSSGVHTFPAVLQSDLYTLSSSVTVTSSTWPSQSITCNVAHPASSTKVDKKIEPRGPTIKPCPPCKCPAPNLLGGPSVFIFPPKIKDVLMISLSPIVTCVVVDVSEDDPDVQISWFVNNVEVHTAQTQTHREDYNSTLRVVSALPIQHQDWMSGKEFKCKVNNKDLPAPIERTISKPKGSVRAPQVYVLPPPEEEMTKKQVTLTCMVTDFMPEDIYVEWTNNGKTELNYKNTEPVLDSDGSYFMYSKLRVEKKNWVERNSYSCSVVHEGLHNHHTTKSFSRTPGK
light: DVVMTQTPASVSGPVGGTVTIKCQASERIYSNLAWYQQKPGQPPKLLIYKASTLASGVSSRFKGSGSGTEFTLTIRDLECADAATYSCQYTSYGSGYVGTFGGGTEVVVEGRADAAPTVSIFPPSSEQLTSGGASVVCFLNNFYPKDINVKWKIDGSERQNGVLNSWTDQDSKDSTYSMSSTLTLTKDEYERHNSYTCEATHKTSTSPIVKSFNRNEC
notes: also called a-Centyrin
B6: AS7B16 scFv CAR, L-H orientation (scFv)
chain: NIMMTQSPSSLAVSAGEKVTMNCKSSQSVLFGSKQKNYLAWYQQKPGQSPKLLIYWASTRESGVPDRFTGSGSGTDFILTISNVQAEDLAVYYCHQYLSLFTFGSGTKLEIKGGGGSGGGGSGGGGSGGGGSQVTLKESGPGILQPSQTLSLTCSFSGFSLNTSGTGVGWIRQPSGKGLEWLAHIWWDDDKGYNPALKSRLTISKNTSSNLVFLKIASVDTADTATYYCVRIKGRMDYWGQGTSVTVSSTTTPAPRPPTPAPTIASQPLSLRPEACRPAAGGAVHTRGLDFACDIYIWAPLAGTCGVLLLSLVITLYCKRGRKKLLYIFKQPFMRPVQTTQEEDGCSCRFPEEEEGGCELRVKFSRSADAPAYKQGQNQLYNELNLGRREEYDVLDKRRGRDPEMGGKPRRKNPQEGLYNELQKDKMAEAYSEIGMKGERRRGKGHDGLYQGLSTATKDTYDALHMQALPPR
notes: Chimeric antigen receptor on mRNA-electroporated human pan T cells; also called AS7B16 L2H; AS7B16 L-H CAR ECD

How the values were obtained:
Tencon25 [1] = molecular target: T1, Tencon25; experiment: ELISA, coated FN3 domain in dose-response, supernatant at 1 µg/ml, luminescence
Experimental: (§1) Three plates were coated with dose-response curves of, FN3 domain A3 specific for human cMET (SEQ ID NO: 31), 83v2-ABD specific for human EGFR with an albumin binding domain (SEQ ID NO: 32), tencon 25 that has no specificity (SEQ ID NO: 28), or negative control protein, all at 50 μL/well in 50 mM PBS. Plates were incubated over night at 4° C. Supernatants were dumped from plates and 200 μL/well Superblock was added to block plates for 1 hour at RT. […] Plates were incubated for 1 hour at RT. Plates were washed 3× with TBS-T. Secondary antibodies (HRP-goat anti-rabbit, rat or mouse) were prepared at 1:10,000 in Superblock and added to the plates. Plates were incubated for 1 hour at RT. Plates were washed 3× with TBS-T. 50 μL/well POD reagent (prepared according to Sigma-Aldrich manufacturer's instructions and incubated in the dark at RT for at least 30 minutes prior to use) was added to plates. After 3-5 minute incubation, protected from light, the M5 was used to read luminescence. The results were plotted in Prism (FIGS. 1A-C) using a Log/Log transformation, and then a four-parameter curve fit. […] It should be noted that there was no non-specific binding to negative control antibody. The mouse version of the antibody, AS7B91, appeared to have binding characteristics more similar to the original rabbit hybridoma antibody.

[2] = molecular target: T2, FN3 domain A3 specific for human cMET; experiment: as above
Experimental: as §1

[3] = molecular target: T3, 83v2-ABD specific for human EGFR with …; experiment: as above
Experimental: as §1

Tencon25 [4] = molecular target: T1, Tencon25; experiment: flow cytometry on CAR-electroporated primary T cells, labeled Tencon25
Tencon25 [5] = molecular target: T1, Tencon25; experiment: flow cytometry, CAR-electroporated T cells stained with 50 nM APC labeled Tencon-25
Experimental: For AS7B16 and AS7B82, binding was assessed using flow cytometry. Briefly, Twenty-four hours post-electroporation, cells were centrifuged at 100×g for 10 minutes and washed two times in FACS stain buffer (BD Biosciences Catalog#554657). Cells were incubated with either APC labeled […] or AF647 labeled anti-EGFR 83v2 FN3 domains at a final concentration of 50 nM at 4° C. for 1 hour. The labeled cells were washed twice in FACS stain buffer and re-suspended in 200 uL of the same buffer. Data was collected using a BD LSRFortessa flow cytometer and analysis was performed using Flowjo software. All CARTs tested, AS7B16, AS7B82 and AS7B91 bind to both FN3 domains tested, Tencon-T25 and EGFR 83v2. Binding of CARTs occurs in the following manner: ASS7B91>AS7B82>AS7B16.

[6] = molecular target: anti-BCMA CARTyrins expressed on the surface of primary T cells; experiment: cell-based or functional assay

Binder	binding result (Tencon25 [1])	binding result [2]	binding result [3]	binding result (Tencon25 [4])	binding result (Tencon25 [5])	further results
B1	binds	binds	binds	–	–	–
B2	–	–	–	binds	–	–
B3	–	–	–	–	binds	–
B4	–	–	–	binds	–	–
B5	binds	binds	binds	–	–	increase in cell number compared to unstimulated cells [6]: 11 fold
B6	–	–	–	–	binds	–
